From US20250388694A1 (BOOSTIMMUNE, published 2025) come the findings set out here.

Assay [1] has as its target T1, Human TCTP (translationally controlled tumor protein) (human, UniProt P13693 1-172).
T1 construct: also called HRF; Tpt1
T1 sequence: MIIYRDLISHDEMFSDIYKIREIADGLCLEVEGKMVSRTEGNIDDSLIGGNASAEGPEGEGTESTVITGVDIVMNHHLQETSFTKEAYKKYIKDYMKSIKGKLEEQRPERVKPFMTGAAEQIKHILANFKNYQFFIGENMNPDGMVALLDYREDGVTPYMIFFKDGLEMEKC
The assay can be described thus: ELISA, selection of hybridoma antibodies. In general terms: ELISA stands for enzyme-linked immunosorbent assay.

The target of assay [2] is T1, Human TCTP (translationally controlled …). The assay can be described thus: SPR, Biacore 8K, human TCTP immobilised on CM5 chip, antibody as analyte, 1:1 model. The procedure: The antigen binding capacity of antibodies selected in Example 1 was analyzed using a SPR technique. The device used was Biacore 8K (Ge Healthcare). Human TCTP was immobilized on a chip, and antibodies were shed at 6 or 7 different concentrations. A CM5 chip (GE Healthcare, Cat. 29-1275-56), a regeneration buffer (10 mM glycine-HCl (GE Healthcare)), and a driving buffer HBS-EP+, and the like were used. For kinetic analysis, the binding time was set to 100 or 120 seconds, the flow rate was set to 30 or 50 μl/min in the binding phase, and in the dissociation phase, the dissociation time was set to 300 or 360 seconds, and the flow rate was set to 30 or 50 μl/min. The fitting was carried out using a 1:1 combined model, and BIACore Evaluation Software (GE healthcare) was used as the evaluation software.
Background: In SPR one partner is held on a chip, and binding of the other changes the refractive index at the surface.

Assay [3] concerns the target T2, mouse TCTP in which the 13th leucine was replaced with methionine (mouse, UniProt P63028 1-172).
T2 construct: One of several mouse-to-human replacement mutants; also called mouse TCTP L13M
T2 sequence (looked up): T1 sequence with N42A, I67V, I99L, R107K, K130N, Y159F
The assay can be described thus: ELISA on mouse TCTP mutants.

The next assay concerns the target T3, mouse TCTP (mouse, UniProt P63028 1-172).
T3 sequence (looked up): T1 sequence with M13L, N42A, I67V, I99L, R107K, K130N, Y159F
The assay can be described thus: ELISA on mouse TCTP, binder titrated as scFv (axis [scFv] Log(nM)), OD450 [panel Mouse TCTP].

In assay [4] the target is T1, Human TCTP (translationally controlled …). Put plainly: competition ELISA: human TCTP coated at 1 µg/ml, 150 nM TLR2 plus titrated antibody, bound TLR2 detected; % inhibition of TLR2-TCTP binding.
Assay [5] shares this target. Put plainly: ELISA, human TCTP coated at 1 µg/ml, antibody titrated, OD 450 nm. As for the experimental part:
ELISA was carried out to quantitatively analyze the binding capacity of selected antibodies to antigens. To this end, human TCTP was attached to an ELISA plate at a concentration of 1 μg/ml and then treated with antibodies of various concentrations to check the relative binding capacity. As a result of the measurement, all of antibodies Ab1, Ab2, Ab3, Ab4, Ab5, Ab6, Ab7, Ab8, Ab9, Ab12, Ab13, Ab14, Ab15, Ab17, Ab18, Ab19, Ab20, Ab21, and Ab22 were confirmed to bind well to human TCTP (FIGS. 1a and 1b).

Numbering of substitutions follows the chain as printed.

In general, Kd refers to the constant that tells how readily two partners part at equilibrium. As a reminder, the EC50 (read off the curve) is the concentration giving half of the maximal effect. A low value points to an effect from little substance.

B1: Ab16 (antibody, V domains shown)
VH: QVQLQQSGPGLVKPSQTLSLTCAISGDSVSSNSAAWNWIRQSPSRGLEWLGRTYYKSKWYNDYAVSVKSRMTINPDTSKNQFSLQLNSVTPEDTAVYYCARGGSAVFDYWGQGTLVTVSS
VL: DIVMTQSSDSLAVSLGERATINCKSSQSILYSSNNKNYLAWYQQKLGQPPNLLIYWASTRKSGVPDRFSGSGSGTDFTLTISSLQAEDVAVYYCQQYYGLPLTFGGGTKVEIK
notes: also called antibody Ab16
Take B1: the binding result in assay [1] was “binds”.

B2: Ab17 (antibody, V domains shown)
VH: B1 VH
VL: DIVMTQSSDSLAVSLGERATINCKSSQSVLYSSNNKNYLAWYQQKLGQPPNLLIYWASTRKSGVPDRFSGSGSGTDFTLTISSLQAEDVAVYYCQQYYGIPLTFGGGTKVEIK
notes: also called antibody Ab17
In assay [2], B2 showed a Kd of 1.23 nM.

B3: Ab10 (antibody, V domains shown)
VH: not shown
VL: QSVVTQPPSVSAAPGQKVTISCSGSSSNIGNKKVSWYQQLPVTAPKLLIYDDNKRPSGIPDRFSGSKSGTSATLGITGLQTGDEADYYCATWDSSLRAVVFGGGTKLTVL
notes: also called antibody Ab10; parent antibody
Consider B3, for which the binding result (in assay [3]; in the assay with mouse TCTP) was “binds” in each case. The same molecule came in with a Kd in assay [2] of 0.224 nM.

B4: Ab10-3 (antibody, V domains shown)
VH: not shown
VL: B3 VL
notes: Single-residue CDR mutant of Ab10; also called antibody Ab10-3; mutant of Ab10
Take B4: in the assay with mouse TCTP, the “EC50 (read off the curve)” value is roughly 5 nM. Moreover, the “IC50 (read off the curve)” value in assay [4] is roughly 20 nM.

B5: Ab12 (antibody, V domains shown)
VH: QVQLVQSGAEVKKPGASVKVSCKASGYTFTSHAVHWVRQAPGQRLEWMGWINAGKGNTKYSQKFQGRVTITRDTSATTAYMELSSLRSEDTAVYYCARGRAVAFDPWGQGTLVTVSS
VL: RSALTQPPSASGSPGQSVTVSCTGTNSDIGGYNYVSWYKQHPGNAPKLMIYEVNKRPSGVPDRFSGSKSGNTASLTVSGLQTEDEADYYCASYAGDNNLVFGGGTKLTVL
notes: also called antibody Ab12
As to B5, in assay [2], the Kd was 0.168 nM. Moreover, in assay [4], the “IC50 (read off the curve)” value was roughly 10 nM.

B6: Ab19 (antibody, V domains shown)
VH: QVQLQQSGPGLVKPSQTLSLTCAISGDSVSSSSAAWNWIRQSPSRGLEWLGRTYYRSKWYNDYAESVKSRITINPDTSKNQFSLQLNSVTPEDTAVYYCARRLTIVRGVMRGGMDVWGQGTTVTVSS
VL: DIVMTQSPDSLAVSLDERATINCKSSQNLLYSANNKDYLAWYQQKPGQPPKLLIYWASTRYSGIPDRFSGSGSGTDFTLTISSLQAEDVAVYYCQQYYSTPWTFGQGTKVEIK
notes: also called antibody Ab19
On to B6, for which the Kd in assay [2] was found to be 2.77 nM. This counts as single-digit nanomolar.

B7: Ab20 (antibody, V domains shown)
VH: B6 VH with Y54F, P75A
VL: B6 VL with A12T, V13G, L39I, P49S, T59I, I64V, Y98F
notes: also called antibody Ab20
Turning to B7, in assay [2], the Kd turned out to be 0.704 nM. The “IC50 (read off the curve)” value in assay [4] is roughly 10 nM.

B8: Ab9 (antibody, V domains shown)
VH: QVQLQQSGPGLVKPSQTLSLTCAISGDSVSSNSAAWNWIRQSPSRGLEWLGRTYYRSKWYNDYAVSVKSRITINPDTSKNQFSLQLNSVTPEDTAVYYCAREGITVGRGVMLYFDLWGRGTLVTVSS
VL: DVLMTQSPLSLPVTLGQPASISCRSSQSLVYSDGNTHLKWFQQRPGQSPRRLIYKVSKWDSGVPDRVSGSGSGTDFTLKISRVEAEDVGVYYCMQGTHWPPTFGQGTKVEIK
notes: From Beacon screening; also called antibody Ab9
B8: in assay [5], the binding result is reported as “binds”.

B9: Ab4 (antibody, V domains shown)
VH: QVQLVQSGAEVKKPGASVKVSCKASGYTFTSNAMHWVRQAPGQRLEWMGWINAGNGNTKYSQKFQGRVTITRDTSASTAYMELSSLRSEDTAVYYCARGYYDILTGYYTTDAFDIWGQGTMVTVSS
VL: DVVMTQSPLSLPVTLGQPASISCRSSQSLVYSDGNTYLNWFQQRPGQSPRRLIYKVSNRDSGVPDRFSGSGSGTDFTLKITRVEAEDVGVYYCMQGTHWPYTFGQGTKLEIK
notes: From Beacon screening; also called antibody Ab4
As to B9, the binding result in assay [5] was “binds”.

B10: Ab6 (antibody, V domains shown)
VH: QVQLQESGPGLVKPSGTLSLTCAVSGGSISSSNWWSWVRQPPGKGLEWIGEIDHSGTTTYNPSLKSRVTMSVDQSKNQFSLKLSSVTAADTAVYYCARDGSGSYEGYWGQGTLVTVSS
VL: DIQMTQSPSSLSASVGDRVTITCRASQAISNHLAWFQQKPGKAPKSLIYAASSLQSGVPSKFSGSGSGTDFTLTISSLQPEDFATYYCQQYHSYPITFGQGTRLEIK
notes: From Beacon screening; also called antibody Ab6
B10 displayed a Kd in assay [2] of 72.8 nM.

B11: Ab7 (antibody, V domains shown)
VH: QVQLQESGPGLVKPSETLSLTCAVSGGSISSSNWWSWVRQPPGKGLEWIGEIYHGVTTYNPSLKSRVTISVDNSKNQFSLKLSSVTAADTAVYYCARDGSGSYEGYWGQGTLVTVSS
VL: B10 VL with A28D, H32Y, S93Y
notes: From Beacon screening; also called antibody Ab7
Consider B11, for which the Kd in assay [2] worked out at 107 nM.

B12: Ab8 (antibody, V domains shown)
VH: QVQLVQSGAEVKKPGASVKVSCKASGYTFFSYAMHWVRQAPGQRLEWMGWINAGNGNTKYSQKFQDRVTITRDTSATTAYMELSSLRSEDTAVYYCASWVFDYWGQGTPVTVSS
VL: DIVMTQTPLSSLVTLGQPASISCRSSQSLVHRDGNTYLSWLQQRPGQPPRLLIYKISNRFFGVPDRFSGSGAGTDFTLKISRVEAEDVGVYYCMQATQFPHTFGQGTKLEIK
notes: From Beacon screening; also called antibody Ab8
In the case of B12, the “EC50 (read off the curve)” value in assay [5] is roughly 0.02 µg/mL. The molecule further registered a Kd in assay [2] of 14 nM. In addition, the “IC50 (read off the curve)” value in assay [4] is roughly 6 nM.
